According to patent US5914109:

What was measured:
[1] = molecular target: gp120 of HIVMN (HIV-1 strain MN) (UniProt P05877)
[2] = molecular target: gp120 of HTLV-IIIB (HIV-1 isolate IIIB)
[3] = molecular target: gp120 of HIVMN (HIV-1 strain MN) (UniProt P05877); remark: listed apart in the source
[4] = molecular target: gp120 of HTLV-IIIB (HIV-1 isolate IIIB); remark: listed apart in the source
[5] = molecular target: 20-mer V3 peptide of HIVMN (American Bio-Technologies) (HIV-1 strain MN); assay: Friguet ELISA method, V3 MN peptide
[6] = molecular target: recombinant gp120IIIB (baculovirus, Repligen) (HIV-1 isolate IIIB) (UniProt P04578); assay: Friguet method; reference: V3IIIB peptide
[7] = molecular target: recombinant gp120 protein of HIVSF2 (produced in CHO cells) (HIV-1 isolate SF-2) (UniProt P03378); assay: Friguet method; reference: V3SF-2 peptide
[8] = molecular target: 20-mer V3 peptide of HIVSF2 (HIV-1 isolate SF-2); assay: ELISA on V3 peptide coated plates, mAb at 10 µg/ml
[9] = molecular target: 22-mer V3 peptide of HXB2 (HIV-1 HXB2 (IIIB)); assay: ELISA on V3 peptide coated plates, mAb at 10 µg/ml
[10] = molecular target: 23-mer peptide of the gp120 V3 loop of the MN strain of HIV-1 (HIV-1 strain MN); assay: ELISA on V3 peptide coated plates, mAb at 10 µg/ml
[11] = molecular target: V3-CDC4 peptide (HIV-1 isolate CDC4); assay: ELISA on V3 peptide coated plates, mAb at 10 µg/ml
[12] = molecular target: V3-NY5 peptide (HIV-1 isolate NY5); assay: ELISA on V3 peptide coated plates, mAb at 10 µg/ml
[13] = molecular target: V3-RF peptide (HIV-1 isolate RF); assay: ELISA on V3 peptide coated plates, mAb at 10 µg/ml
[14] = molecular target: V3-SC peptide (HIV-1 isolate SC); assay: ELISA on V3 peptide coated plates, mAb at 10 µg/ml
[15] = molecular target: V3-WM52 peptide (HIV-1 isolate WM52); assay: ELISA on V3 peptide coated plates, mAb at 10 µg/ml
[16] = molecular target: 20-mer V3 peptide of HIVMN (American Bio-Technologies) (HIV-1 strain MN); assay: competition ELISA in solution at equilibrium (Friguet method)
[17] = molecular target: 20-mer V3 peptide of HIVSF2 (HIV-1 isolate SF-2); assay: as above
[18] = molecular target: 22-mer V3 peptide of HXB2 (HIV-1 HXB2 (IIIB)); assay: as above
[19] = molecular target: recombinant gp120 protein of HIVSF2 (produced in CHO cells) (HIV-1 isolate SF-2) (UniProt P03378); assay: Friguet method, ligand in solution at equilibrium; rgp120 SF-2
[20] = molecular target: 20-mer V3 peptide of HIVMN (American Bio-Technologies) (HIV-1 strain MN); assay: Friguet method, ligand in solution at equilibrium; V3 peptide of MN
[21] = molecular target: 22-mer V3 peptide of HXB2 (HIV-1 HXB2 (IIIB)); assay: Friguet method, ligand in solution at equilibrium; V3 peptide of HXB2
[22] = molecular target: 20-mer V3 peptide of HIVSF2 (HIV-1 isolate SF-2); assay: Friguet method, ligand in solution at equilibrium; V3 peptide of SF-2
[23] = molecular target: recombinant gp120IIIB (baculovirus, Repligen) (HIV-1 isolate IIIB) (UniProt P04578); assay: Friguet method, ligand in solution at equilibrium; rgp120 IIIB (row HXB2)
[24] = molecular target: 22-mer V3 peptide of HXB2 (HIV-1 HXB2 (IIIB)); assay: competition ELISA in solution (Friguet method); mAb after the fourth cloning
[25] = molecular target: 22-mer V3 peptide of HXB2 (HIV-1 HXB2 (IIIB)); assay: competition ELISA in solution (Friguet method); mAb after the second cloning
[26] = molecular target: gp120 of HIV-1 isolate AL-1 (HIV-1 isolate AL-1)
[27] = molecular target: gp120 of HIV-1 isolate DU 7887-7 (HIV-1 isolate DU 7887-7)
[28] = molecular target: gp120 of HIV-1 isolate RF (HIV-1 isolate RF) (UniProt P04579)
[29] = molecular target: gp120 of HIV-1 isolate SF-2 (virus) (HIV-1 isolate SF-2) (UniProt P03378)
[30] = molecular target: gp120 of HIV-1 isolate WMJ-2 (HIV-1 isolate WMJ-2)
[31] = molecular target: gp120 of HIVMN (HIV-1 strain MN) (UniProt P05877); remark: listed apart in the source
[32] = molecular target: gp120 of HTLV-IIIB (HIV-1 isolate IIIB); remark: listed apart in the source
[33] = molecular target: heptapeptide GPGRAFY (pin 12) (HIV-1 strain MN); assay: pin ELISA, heptapeptide on pin, mAb at 10 µg/ml
[34] = molecular target: heptapeptide GRAFYTT (pin 14) (HIV-1 strain MN); assay: pin ELISA, heptapeptide on pin, mAb at 10 µg/ml
[35] = molecular target: heptapeptide HIGPGRA (pin 10) (HIV-1 strain MN); assay: pin ELISA, heptapeptide on pin, mAb at 10 µg/ml
[36] = molecular target: heptapeptide IGPGRAF (pin 11) (HIV-1 strain MN); assay: pin ELISA, heptapeptide on pin, mAb at 10 µg/ml
[37] = molecular target: heptapeptide PGRAFYT (pin 13) (HIV-1 strain MN); assay: pin ELISA, heptapeptide on pin, mAb at 10 µg/ml
[38] = molecular target: heptapeptide RAFYTTK (pin 15) (HIV-1 strain MN); assay: pin ELISA, heptapeptide on pin, mAb at 10 µg/ml

## human mAb 447-D (antibody)
[1]
  50% neutralization, CEM-SS syncytium-forming assay, IgG concentration: 0.05 µg/mL
  90% neutralization, CEM-SS syncytium-forming assay, IgG concentration: 0.92 µg/mL
[2]
  50% neutralization, CEM-SS syncytium-forming assay, IgG concentration: 1.8 µg/mL
  90% neutralization, CEM-SS syncytium-forming assay, IgG concentration: > 10 µg/mL
[3]
  neutralization dose 50%, according to Nara et al.: 0.052 µg/mL
  neutralization dose 90%, according to Nara et al.: 0.9 µg/mL
[4]
  neutralization dose 50%, according to Nara et al.: 1.8 µg/mL
  percent neutralization at the maximum concentration of 10 µg/ml: 71%
[5]
  Kd: 560 nM
[6]
  fold stronger binding than to the V3IIIB peptide: 6 fold
[7]
  fold stronger binding than to the V3SF-2 peptide: 90 fold
[8]
  minimum antigen concentration giving positive results (µg/ml of V3 peptide used to coat): 0.01
[9]
  minimum antigen concentration giving positive results (µg/ml of V3 peptide used to coat): 0.2
[10]
  minimum antigen concentration giving positive results (µg/ml of V3 peptide used to coat): 0.01
[11]
  minimum antigen concentration giving positive results (µg/ml of V3 peptide used to coat): 0.1
[12]
  minimum antigen concentration giving positive results (µg/ml of V3 peptide used to coat): 0.1
[13]
  minimum antigen concentration giving positive results (µg/ml of V3 peptide used to coat): 0.4
[14]
  minimum antigen concentration giving positive results (µg/ml of V3 peptide used to coat): 0.01
[15]
  minimum antigen concentration giving positive results (µg/ml of V3 peptide used to coat): 0.2
[16]
  Kd: 560 nM
[17]
  Kd: 900 nM
[18]
  Kd: 24 µM
[19]
  Kd: 10 nM
[20]
  Kd: 560 nM
[21]
  Kd: 24 µM
[22]
  Kd: 900 nM
[23]
  Kd: 3.9 µM
[24]
  Kd: 16 µM
[25]
  Kd: 64 µM

## human mAb 694-D (antibody)
[2]
  50% neutralization, CEM-SS syncytium-forming assay, IgG concentration: 0.04 µg/mL
  90% neutralization, CEM-SS syncytium-forming assay, IgG concentration: 1.4 µg/mL
[26]
  neutralization endpoint, MT-4 cell killing assay: 0.04 µg/mL
[27]
  neutralization endpoint, MT-4 cell killing assay: > 25 µg/mL
[28]
  neutralization endpoint, MT-4 cell killing assay: > 25 µg/mL
[29]
  neutralization endpoint, MT-4 cell killing assay: 0.04 µg/mL
[30]
  neutralization endpoint, MT-4 cell killing assay: 6.25 µg/mL
[31]
  neutralization endpoint, MT-4 cell killing assay: 3.13 µg/mL
[32]
  neutralization endpoint, MT-4 cell killing assay: 0.78 µg/mL
[33]
  ELISA Reactivity (absorbance at 410 nm) (absorbance at 410 nm): > 2
[34]
  ELISA Reactivity (absorbance at 410 nm) (absorbance at 410 nm): 1.23
[35]
  ELISA Reactivity (absorbance at 410 nm) (absorbance at 410 nm): 0.14
[36]
  ELISA Reactivity (absorbance at 410 nm) (absorbance at 410 nm): 1.37
[37]
  ELISA Reactivity (absorbance at 410 nm) (absorbance at 410 nm): 1.4
[38]
  ELISA Reactivity (absorbance at 410 nm) (absorbance at 410 nm): 0.089
[8]
  minimum antigen concentration giving positive results (µg/ml of V3 peptide used to coat): 0.01
[9]
  minimum antigen concentration giving positive results (µg/ml of V3 peptide used to coat): 0.1
[10]
  minimum antigen concentration giving positive results (µg/ml of V3 peptide used to coat): 0.01
[11]
  minimum antigen concentration giving positive results (µg/ml of V3 peptide used to coat): 1
[12]
  minimum antigen concentration giving positive results (µg/ml of V3 peptide used to coat): 1
[13]
  minimum antigen concentration giving positive results (µg/ml of V3 peptide used to coat): 1
[14]
  minimum antigen concentration giving positive results (µg/ml of V3 peptide used to coat): 0.02
[15]
  minimum antigen concentration giving positive results (µg/ml of V3 peptide used to coat): 0.6
[17]
  Kd: 1800 nM
[18]
  Kd: 12 µM
